# Experimental data from patent US20170009259A1 (SUMITOMO RUBBER INDUSTRIES, published 2017).
# T1: Hevea rubber transferase 2 (HRT2), cis-prenyltransferase from Hevea brasiliensis (Hevea brasiliensis, UniProt Q8W3U4 1-284)
# T1 construct: In the yeast two-hybrid assay it was expressed from the pPR3-N prey vector (pPR-HRT2) or the pBT3-SUC bait vector (pBT-HRT2); also called CPT; pPR-HRT2
# T1 sequence: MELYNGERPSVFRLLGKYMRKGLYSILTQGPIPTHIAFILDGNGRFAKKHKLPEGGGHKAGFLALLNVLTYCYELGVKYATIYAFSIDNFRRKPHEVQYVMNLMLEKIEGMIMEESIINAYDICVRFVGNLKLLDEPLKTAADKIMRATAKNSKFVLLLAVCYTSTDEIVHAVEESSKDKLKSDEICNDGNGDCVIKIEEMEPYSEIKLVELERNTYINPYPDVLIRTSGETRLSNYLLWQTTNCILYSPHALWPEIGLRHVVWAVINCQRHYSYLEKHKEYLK
# B1: Nogo-B receptor (NgBr) from Hevea brasiliensis (receptor)
# chain: MDLKPGAGGQRVNRLVDPISYHFLQFLWRTLHLLVSLWYLQVSMVQMIEGFLISSGLVKRYGALDIDKVRYLAIVVDSEEAYQISKVIQLLKWVEDMGVKHLCLYDSKGVLKTNKKTIMESLNNAMPFEEAVEKDVLLDQKQMTVEFASSSDGKEAITRAANVLFMKYLKYAKTGVGKEEPCFTEDQMDEALKAIGYKGPEPDLLLIYGPVRCHLGFSPWRLRYTEMVHMGPLRYMNLGSLKKAIHRFTTVQQNYGT
# notes: In the yeast two-hybrid assay it was expressed from the pBT3-SUC bait vector (pBT-NgBr); also called pBT-NgBr
# B2: Hevea rubber transferase 1 (HRT1), cis-prenyltransferase from Hevea brasiliensis (enzyme)
# chain: MELYNGERPSVFRLLGKYMRKGLYSILTQGPIPTHIAFILDGNRRFAKKHKLPEGGGHKAGFLALLNVLTYCYELGVKYATIYAFSIDNFRRKPHEVQYVMDLMLEKIEGMIMEESIINAYDICVRFVGNLKLLSEPVKTAADKIMRATANNSKCVLLIAVCYTSTDEIVHAVEESSELNSNEVCNNQELEEANATGSGTVIQIENMESYSGIKLVDLEKNTYINPYPDVLIRTSGETRLSNYLLWQTTNCILYSPHALWPEIGLRHVVWAVINFQRHYSYLEKHKEYLK
# notes: In the yeast two-hybrid assay it was expressed from the pPR3-N prey vector (pPR-HRT1) or the pBT3-SUC bait vector (pBT-HRT1); also called CPT; pPR-HRT1
# How the values were obtained:
# [1] = biological target: T1, Hevea rubber transferase 2 (HRT2), …; experiment: yeast two-hybrid, pPR-HRT2 prey with pBT-NgBr bait (pair No. 9), growth on Trp-, Leu-, Ade- and His-deficient SD medium
# Description: (§1) The yeast strain NMY-51 was transformed with the collected plasmids. The PEG method was used for the double transformation of the yeast. The transformant cells were cultured at 30° C. for three days on Trp- and Leu-deficient SD medium for screening.
# (§2) In this experiment, the yeast can grow on the selective medium only when a protein encoded by the gene introduced in the bait plasmid interacts with a protein encoded by the gene introduced in the prey plasmid.
# [2] = biological target: T1, Hevea rubber transferase 2 (HRT2), …; experiment: yeast two-hybrid, pPR-HRT1 prey with pBT-HRT2 bait (pair No. 6), growth on Trp-, Leu-, Ade- and His-deficient SD medium
# Description: as §1, §2
# [3] = biological target: B1; experiment: yeast two-hybrid, pPR-HRT1 prey with pBT-NgBr bait (pair No. 5), growth on Trp-, Leu-, Ade- and His-deficient SD medium
# Description: as §1, §2
Binder,binding result [1],binding result [2],binding result [3]
B1,no binding,,
B2,,no binding,binds
